Literature values in article PMC3557855.

What was measured:
Assay in all cases: SPR
ESL-1 = ESL-1 (UniProt Q61543)
PSGL-1 (Homo sapiens) = PSGL-1 (Homo sapiens) (UniProt Q14242)
GlyCAM-1 (Mus musculus) = GlyCAM-1 (Mus musculus) (UniProt Q02596)
UniProt Q02596, sequence (Q02596 20-151): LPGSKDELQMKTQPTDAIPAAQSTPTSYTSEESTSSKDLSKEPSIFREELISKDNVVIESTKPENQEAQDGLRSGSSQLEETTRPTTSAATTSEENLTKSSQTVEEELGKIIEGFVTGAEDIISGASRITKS

UniProt Q14242, sequence (Q14242 42-320): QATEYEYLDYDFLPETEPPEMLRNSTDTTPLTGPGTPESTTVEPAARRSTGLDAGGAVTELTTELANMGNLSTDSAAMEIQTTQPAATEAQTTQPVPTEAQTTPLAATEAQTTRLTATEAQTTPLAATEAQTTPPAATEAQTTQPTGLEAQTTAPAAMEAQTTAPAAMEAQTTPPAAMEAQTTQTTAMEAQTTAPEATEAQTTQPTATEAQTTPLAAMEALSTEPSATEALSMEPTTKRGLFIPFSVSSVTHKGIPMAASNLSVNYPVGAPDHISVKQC
UniProt Q61543, sequence (Q61543 28-1141): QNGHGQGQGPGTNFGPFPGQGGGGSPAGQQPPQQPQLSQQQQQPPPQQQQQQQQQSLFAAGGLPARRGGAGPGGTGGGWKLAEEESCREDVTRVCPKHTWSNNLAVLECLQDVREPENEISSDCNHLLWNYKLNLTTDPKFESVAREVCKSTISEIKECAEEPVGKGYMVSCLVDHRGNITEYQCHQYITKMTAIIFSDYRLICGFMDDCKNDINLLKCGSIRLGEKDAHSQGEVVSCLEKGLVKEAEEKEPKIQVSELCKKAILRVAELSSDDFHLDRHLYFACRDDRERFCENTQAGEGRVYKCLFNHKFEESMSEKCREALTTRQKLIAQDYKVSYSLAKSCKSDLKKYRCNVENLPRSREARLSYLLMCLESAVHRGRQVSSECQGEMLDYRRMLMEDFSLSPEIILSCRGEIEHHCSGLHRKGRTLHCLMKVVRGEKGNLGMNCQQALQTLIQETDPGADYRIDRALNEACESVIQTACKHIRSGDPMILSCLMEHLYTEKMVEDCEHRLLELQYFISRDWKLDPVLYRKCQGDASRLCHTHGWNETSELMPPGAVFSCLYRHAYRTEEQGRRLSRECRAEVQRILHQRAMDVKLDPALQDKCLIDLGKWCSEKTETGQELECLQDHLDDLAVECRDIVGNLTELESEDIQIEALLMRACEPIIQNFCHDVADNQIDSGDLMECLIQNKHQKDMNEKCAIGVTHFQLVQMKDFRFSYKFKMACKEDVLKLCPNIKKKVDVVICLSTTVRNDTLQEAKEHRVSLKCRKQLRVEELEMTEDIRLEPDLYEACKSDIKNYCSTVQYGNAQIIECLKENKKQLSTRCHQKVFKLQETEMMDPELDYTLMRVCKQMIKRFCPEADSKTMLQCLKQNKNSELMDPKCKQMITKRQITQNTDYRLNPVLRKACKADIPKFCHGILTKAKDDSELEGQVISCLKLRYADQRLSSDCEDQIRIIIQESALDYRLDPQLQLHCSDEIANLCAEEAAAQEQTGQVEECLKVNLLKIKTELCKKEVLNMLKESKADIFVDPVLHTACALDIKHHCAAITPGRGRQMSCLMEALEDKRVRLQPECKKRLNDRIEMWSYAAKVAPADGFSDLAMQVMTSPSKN

E-selectin (from UniProt P16581)
Kd (ESL-1): 62 µM

L-selectin (from UniProt P14151)
Kd (PSGL-1 (Homo sapiens)): 47 µM

L-selectin (from UniProt P18337)
Kd (GlyCAM-1 (Mus musculus)): 108 µM
